Here are results for 2 substances from paper PMC5444859.

Assay [1] deals with isolated CASV L-Cterm domain 2 (California Academy of Sciences virus (CASV)). As to the kind of experiment: SAXS.
Assay [2] has as its target CASV L-Cterm (C-terminal 326 amino acids of the California Academy of Sciences virus L protein, residues 1721-2046) (California Academy of Sciences virus (CASV)) (UniProt J7HBG8). As to the kind of experiment: SAXS.
Assay [3] has the same target. Put plainly: SEC.

In assay [1], “isolated CASV L-Cterm domain 2 (domain or fragment)” had a stoichiometry N of 2.
As to “CASV L-Cterm (C-terminal 326 amino acids of the California Academy of Sciences virus L protein, residues 1721-2046) (from UniProt J7HBG8 1721-2046) (domain or fragment)”, the stoichiometry N in assay [2] and in assay [3] was 2 throughout.
